These results are taken from publication PMC2726290, “Decoding of Methylated Histone H3 Tail by the Pygo-BCL9 Wnt Signaling Complex” (Molecular Cell, 2008).

In the experiment the test system is pygo null mutant clones in wing discs. As to the kind of experiment: Rescue assays in Drosophila pygo null mutant clones. The settings on record: for rescue of pygo mutant phenotypes (notches and bristle defects): anterior wing margin of adult flies bearing pygo mutant clones, overexpression; for rescue of senseless expression: overexpression by GAL4 system in pygo null mutant wing disc clones, third instar larvae. It is filed as in vivo. The source says:
To test whether the binding of Pygo to H3K4me is important for its function in vivo, we conducted rescue assays in Drosophila ([de la Roche and Bienz, 2007]). We introduced a point mutation into V757 (in EVND) of Drosophila Pygo, which corresponds to V350 of hPHD that lines its K4me pocket (Figure 4B) and whose mutation drastically reduces its binding to H3K4me3 (Figure 4E). We then generated pygo null mutant clones in wing discs, one of the best-characterized Wingless-responsive tissues whose development depends on Pygo function ([Belenkaya et al., 2002; de la Roche and Bienz, 2007; Kramps et al., 2002; Parker et al., 2002; Thompson et al., 2002]), and we used the GAL4 system to overexpress the Pygo-V757E mutant in these clones, to test its rescue activity in this tissue.
HA-tagged Pygo-V757E was constructed in pUAST, and multiple independent transformant lines were isolated, as described previously for WT HA-Pygo ([Townsley et al., 2004b]). Two different lines were each tested for rescue activity of pygo null mutant clones in the wing disc, as described ([de la Roche and Bienz, 2007]).

B1: WT Pygo: overexpressed wild-type HA-tagged Drosophila Pygo (protein, UniProt Q9V9W8 1-815, looked up)
Protein pygopus: MTHNLGMAPYRLPGPAGGLCPPDFKPPPPTDIISAPSNPKKRRKTSSAANSAAAVAAAAAAAAAANSMQQQQAPPTPQDLLPPPPMGGFGDTIIASNPFDDSPQVSAMSSSAAAAMAAMNQMGGGPGGGHFGGGGPGGHPHWEDRMGMGGGPPPPPHMHPHMHPHHPGGPMGHPHGPHPHMGGPPPMRGMSPMHPHQMGPGPGVGLPPHMNHGRPGGPGGPGGPVPMGSPMGGIAGMGGMSPMGGMGGPSISPHHMGMGGLSPMGGGPNGPNPRAMQGSPMGGPGQNSPMNSLPMGSPMGNPIGSPLGPPSGPGPGNPGNTGGPQQQQQQPPQPPMNNGQMGPPPLHSPLGNGPTGHGSHMPGGPIPGPGPGPGGLVGPGGISPAHGNNPGGSGNNMLGGNPGGGNSNNNGSNTSNASNNNQNPHLSPAAGRLGVPTSMQSNGPSVSSVASSSVPSPATPTLTPTSTATSMSTSVPTSSPAPPAMSPHHSLNSAGPSPGMPNSGPSPLQSPAGPNGPNNNNSNNNNGPMMGQMIPNAVPMQHQQHMGGGPPGHGPGPMPGMGMNQMLPPQQPSHLGPPHPNMMNHPHHPHHHPGGPPPHMMGGPGMHGGPAGMPPHMGGGPNPHMMGGPHGNAGPHMGHGHMGGVPGPGPGPGGMNGPPHPHMSPHHGHPHHHHNPMGGPGPNMFGGGGGGPMGPGGPMGNMGPMGGGPMGGPMGVGPKPMTMGGGKMYPPGQPMVFNPQNPNAPPIYPCGMCHKEVNDNDEAVFCESGCNFFFHRTCVGLTEAAFQMLNKEVFAEWCCDKCVSSKHIPMVKFKC
modifications: HA tag
As for B1, the “rescue of pygo mutant phenotypes (notches and bristle defects)” value is given as “rescued all pygo mutant phenotypes”; the “rescue of senseless expression” value is listed as “restored expression of senseless”.

B2: Pygo-V757E: HA-tagged Drosophila Pygo with point mutation in V757 (in EVND) (protein, UniProt Q9V9W8 1-815, looked up, variant V757E)
Protein pygopus: MTHNLGMAPYRLPGPAGGLCPPDFKPPPPTDIISAPSNPKKRRKTSSAANSAAAVAAAAAAAAAANSMQQQQAPPTPQDLLPPPPMGGFGDTIIASNPFDDSPQVSAMSSSAAAAMAAMNQMGGGPGGGHFGGGGPGGHPHWEDRMGMGGGPPPPPHMHPHMHPHHPGGPMGHPHGPHPHMGGPPPMRGMSPMHPHQMGPGPGVGLPPHMNHGRPGGPGGPGGPVPMGSPMGGIAGMGGMSPMGGMGGPSISPHHMGMGGLSPMGGGPNGPNPRAMQGSPMGGPGQNSPMNSLPMGSPMGNPIGSPLGPPSGPGPGNPGNTGGPQQQQQQPPQPPMNNGQMGPPPLHSPLGNGPTGHGSHMPGGPIPGPGPGPGGLVGPGGISPAHGNNPGGSGNNMLGGNPGGGNSNNNGSNTSNASNNNQNPHLSPAAGRLGVPTSMQSNGPSVSSVASSSVPSPATPTLTPTSTATSMSTSVPTSSPAPPAMSPHHSLNSAGPSPGMPNSGPSPLQSPAGPNGPNNNNSNNNNGPMMGQMIPNAVPMQHQQHMGGGPPGHGPGPMPGMGMNQMLPPQQPSHLGPPHPNMMNHPHHPHHHPGGPPPHMMGGPGMHGGPAGMPPHMGGGPNPHMMGGPHGNAGPHMGHGHMGGVPGPGPGPGGMNGPPHPHMSPHHGHPHHHHNPMGGPGPNMFGGGGGGPMGPGGPMGNMGPMGGGPMGGPMGVGPKPMTMGGGKMYPPGQPMVFNPQNPNAPPIYPCGMCHKEENDNDEAVFCESGCNFFFHRTCVGLTEAAFQMLNKEVFAEWCCDKCVSSKHIPMVKFKC
modifications: HA tag
Regarding B2, the “rescue of pygo mutant phenotypes (notches and bristle defects)” value is on record as “WT Pygo but not Pygo-V757E rescued all pygo mutant phenotypes”; the “rescue of senseless expression” value was “no rescue whatsoever was observed”.
